Data as given in the supplement of paper PMC9732359.
± gives the uncertainty stated by the source.

Test: protein stability index of a GFP-peptide fusion (yeast GPS) (PSI 1-4); higher = more stable; sorted into four equal gates, so the index is relative within each strain
How it was run: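 Yeast carrying a pooled library were grown to mid-log phase in leucine-free medium. Each library plasmid expresses Cherry and has a tiled 17-residue yeast protein peptide fused downstream of GFP. Cells were sorted into four equal gates by GFP/Cherry ratio, and plasmids from each gate were PCR-amplified, Illumina-sequenced and assigned to strains by barcode. Summing, across gates, the read frequency times the gate number gave each peptide's protein stability index.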

| Sequence | protein stability index (doa10∆) | protein stability index (pdr5∆) | protein stability index (san1∆) | protein stability index (ubr1∆) |
| --- | --- | --- | --- | --- |
| SILSFVDKELLEPGCSV [RPT2] | 2.75 ± 0.077 | 2.86 ± 0.071 | 2.3 ± 0.078 | 3.01 ± 0.066 |
| SINATALAFGYVKSLHK [SIN4] | 3.51 ± 0.21 | 2.92 ± 0.12 | 3.1 ± 0.22 | 3.08 ± 0.08 |
| SIPMGGQSINDSLKKLL [ARP9] | 2.39 ± 0.06 | 2.46 ± 0.063 | 2.47 ± 0.08 | 2.61 ± 0.056 |
| SISTYKDILNLASEVGD [ECM29] | 2.63 ± 0.07 | 2.65 ± 0.076 | 2.71 ± 0.071 | 2.77 ± 0.054 |
| SITTGNDNENIVNNDLP [MED2] | 2.79 ± 0.051 | 2.78 ± 0.052 | 2.57 ± 0.054 | 2.87 ± 0.05 |
| SKCLNLISDSNINNSSV [SWI3] | 1.94 ± 0.072 | 1.91 ± 0.065 | 1.6 ± 0.11 | 2.41 ± 0.039 |
| SKFHFSWNESEDTLSGY [PRP28] | 3.07 ± 0.12 | 3.19 ± 0.12 | 3.2 ± 0.075 | 3.47 ± 0.058 |
| SKIQEIESIRSCKDSQL [YIL149C/MLP2] | 2.29 ± 0.044 | 2.92 ± 0.054 | 2.77 ± 0.041 | 2.79 ± 0.047 |
| SKKLDVTVEQLRSIYHQ [NSL1] | 2.42 ± 0.067 | 2.25 ± 0.06 | 1.85 ± 0.055 | 2.08 ± 0.057 |
| SKKRKLVADGVFYAELN [RPS3] | 2.82 ± 0.24 | 1.84 ± 0.19 | 1.55 ± 0.13 |  |
| SKKVTSGVPRLKEILNV [RPO21] | 1.81 ± 0.1 | 2.06 ± 0.12 | 1.55 ± 0.23 | 1.1 ± 0.083 |
| SKLLQTTLKLSPSPILL [NUT1] | 2.4 ± 0.045 | 1.47 ± 0.051 | 1.72 ± 0.091 | 1.5 ± 0.046 |
| SKNCYLSEATESDLYKL [RPB2] | 3.02 ± 0.12 | 3.22 ± 0.14 | 2.9 ± 0.17 | 2.75 ± 0.093 |
| SKNFNVILASSLNEVGT [YML103C/NUP188] | 2.44 ± 0.045 | 2.42 ± 0.043 | 2.56 ± 0.051 | 2.39 ± 0.036 |
| SKNLGEINTALNTLLVT [SWI1] | 1.23 ± 0.077 | 1.79 ± 0.054 | 1.57 ± 0.11 | 1.46 ± 0.066 |
| SKNRIIVEADEKKGIVQ [RET1] | 1.21 ± 0.14 | 1.47 ± 0.061 |  | 1.59 ± 0.077 |
| SKNSPAEDDVIIPQDIL [YJR042W/NUP85] | 3.19 ± 0.13 | 2.96 ± 0.12 | 3.07 ± 0.12 | 3.36 ± 0.19 |
| SKQIFTHPKDTFYITRE [ARP9] | 3.11 ± 0.065 | 3.09 ± 0.056 | 2.93 ± 0.038 | 3.23 ± 0.039 |
| SKRGNDKKHFNNKNKRV [RPC53] | 3.17 ± 0.14 | 2.7 ± 0.11 | 3.09 ± 0.14 | 2.05 ± 0.09 |
| SKSESDSQIVTPGELVT [RRP4] | 3.07 ± 0.11 | 3.17 ± 0.066 | 2.88 ± 0.077 | 2.83 ± 0.066 |
| SKSTSMKLSMPPEVTSS [POP1] | 2.4 ± 0.053 | 2.59 ± 0.062 | 2.44 ± 0.057 | 2.54 ± 0.035 |
| SKSYTPRKLVLSSGENR [SMC4] | 1.65 ± 0.03 | 1.82 ± 0.041 | 1.93 ± 0.056 | 1.7 ± 0.037 |
| SKTENVRRLEAQRNALN [RPT6] | 2.65 ± 0.17 | 2.91 ± 0.18 |  | 2.88 ± 0.074 |
| SKTGIIAYSDSQSSNAN [SIN4] | 2.63 ± 0.043 | 2.6 ± 0.043 | 2.68 ± 0.044 | 2.53 ± 0.058 |
| SKTGSVDTLHNKEGTLE [SSN2] | 3.46 ± 0.24 | 3.14 ± 0.16 | 3.19 ± 0.083 | 3.4 ± 0.14 |
| SKTLSLIQSYSLLDKPD [FAS1] | 2.18 ± 0.078 | 2.01 ± 0.057 | 2.12 ± 0.21 | 2.14 ± 0.074 |

| Sequence | protein stability index (doa10∆) | protein stability index (pdr5∆) | protein stability index (san1∆) | protein stability index (ubr1∆) |
| --- | --- | --- | --- | --- |
| SLDTLELESITESITHD [NUT1] | 2.57 ± 0.063 | 2.42 ± 0.046 | 2.76 ± 0.059 | 2.34 ± 0.035 |
| SLEQRTLNPDLFLYKEL [RPC82] | 3.28 ± 0.28 | 3.13 ± 0.19 | 3.21 ± 0.092 | 3.74 ± 0.27 |
| SLINSHLKILASSNFPF [RPC82] | 2.64 ± 0.066 | 2.3 ± 0.075 | 2.28 ± 0.073 | 2.02 ± 0.042 |
| SLISTRNDSTVNDSVIS [BRN1] | 2.6 ± 0.081 | 2.81 ± 0.077 | 2.72 ± 0.06 | 2.67 ± 0.059 |
| SLKDLSSLRNQELLNAE [RPN3] |  | 2.15 ± 0.22 | 3.34 ± 0.14 |  |
| SLKGYKIENSVQIGAEI [CSI1] |  | 3.21 ± 0.2 | 3.25 ± 0.13 | 3.17 ± 0.17 |
| SLLEKDIDAVNGAVGKR [ISW2] | 2.92 ± 0.09 | 3.24 ± 0.081 | 2.9 ± 0.098 | 3.31 ± 0.064 |
| SLLLSSSFKEDCLSFAP [SSN2] | 2.56 ± 0.24 | 3.17 ± 0.14 | 2.76 ± 0.14 | 3.2 ± 0.19 |
| SLRTPIAPKITPKVVRS [SEC65] | 3.16 ± 0.093 | 3.05 ± 0.063 | 2.87 ± 0.1 | 3.17 ± 0.059 |
| SLSFGSGSAGANPAGAS [YJL041W/NSP1] | 2.92 ± 0.13 | 2.89 ± 0.13 | 2.75 ± 0.18 | 3.1 ± 0.085 |
| SLSRDFVMKTRRRKGIS [SNU114] | 3.25 ± 0.2 | 3.31 ± 0.11 | 3.02 ± 0.074 | 2.77 ± 0.22 |
| SLTISLYASDYASYFPY [RPN7] | 1.42 ± 0.036 | 1.64 ± 0.035 | 1.6 ± 0.049 | 1.67 ± 0.028 |
| SLVFNRKLAVERAGHLL [PRE5] | 2.08 ± 0.2 | 1.5 ± 0.18 | 1.43 ± 0.19 | 1.71 ± 0.21 |
| SLVKYPELLDSLAILGM [SWI1] | 1.89 ± 0.06 | 2.31 ± 0.054 | 1.99 ± 0.075 | 2.16 ± 0.051 |
| SLVSTQSSSSTRSHEYG [REC8] | 2.86 ± 0.08 | 3.04 ± 0.11 | 2.72 ± 0.057 | 3.19 ± 0.12 |
| SMATPTHSDSHEDMKRR [ROX3] | 2.77 ± 0.11 | 2.94 ± 0.11 | 2.53 ± 0.091 | 2.73 ± 0.04 |
| SMENTPKVPVSAAATPS [GAL11] | 2.07 ± 0.045 | 2.19 ± 0.049 | 2.24 ± 0.065 | 1.78 ± 0.036 |
| SMENYHLLIKIIRQLSE [SRB8] | 1.71 ± 0.058 | 1.77 ± 0.064 | 2.31 ± 0.11 | 1.63 ± 0.046 |
| SMIEKGGDWERRNRYKT [RPN7] | 3.01 ± 0.14 | 3.43 ± 0.22 |  |  |
| SMKDRAQHAVILDQEKY [RPS25A] | 1.55 ± 0.094 | 2 ± 0.13 | 2.42 ± 0.14 | 2.23 ± 0.081 |
| SMRIQILRRQAILRQQQ [GAL11] | 3.19 ± 0.29 | 2.98 ± 0.17 | 3.17 ± 0.19 |  |
| SMRTIMKANPALYVLRE [PRP8] |  | 1.91 ± 0.29 |  | 1.37 ± 0.28 |
| SNADTNQNSDMKKKLEL [SRB8] | 3.14 ± 0.13 | 3.21 ± 0.15 | 2.75 ± 0.11 | 3.31 ± 0.17 |
| SNAFYSVLRDTLVAQNL [SMC4] | 2.13 ± 0.086 | 2.09 ± 0.054 | 1.94 ± 0.076 | 2.13 ± 0.033 |
| SNASRRKLINYTKKHLS [RPN4] | 1.73 ± 0.071 | 1.27 ± 0.056 | 1.56 ± 0.097 | 1.34 ± 0.042 |
